± gives the uncertainty stated by the source.
Assay: abundance fitness (aPCA) (normalised: wild type 0, dead -1); higher = more abundant; growth selection in yeast, the domain comes from the species named
Conditions: Homo sapiens
Work on “Scaffold attachment factor B2 L56G, Q14151” yielded an abundance fitness of -0.285 ± 0.079. In the case of “Scaffold attachment factor B2 L56H, Q14151”, the abundance fitness is reported as -0.296 ± 0.094. “Scaffold attachment factor B2 L56K, Q14151” gave an abundance fitness of -0.524 ± 0.096. In the case of “Scaffold attachment factor B2 L56M, Q14151”, the abundance fitness is reported as -0.179 ± 0.099. For “Scaffold attachment factor B2 L56N, Q14151”, the abundance fitness was -1.2 ± 0.43. Substance “Scaffold attachment factor B2 L56P, Q14151” has an abundance fitness of -0.319 ± 0.13. In the case of “Scaffold attachment factor B2 L56Q, Q14151”, the abundance fitness is reported as -0.378 ± 0.28. For “Scaffold attachment factor B2 L56R, Q14151”, the abundance fitness was -0.39 ± 0.07. With “Scaffold attachment factor B2 L56S, Q14151” the abundance fitness was -0.434 ± 0.1. Substance “Scaffold attachment factor B2 L56T, Q14151” has an abundance fitness of -0.546 ± 0.12. Work on “Scaffold attachment factor B2 L56V, Q14151” yielded an abundance fitness of -0.369 ± 0.082. For “Scaffold attachment factor B2 L56W, Q14151”, the abundance fitness was -0.631 ± 0.086. Work on “Scaffold attachment factor B2 L56Y, Q14151” yielded an abundance fitness of -1.01 ± 0.23. For “Scaffold attachment factor B2 L60A, Q14151”, the abundance fitness was -0.323 ± 0.094. “Scaffold attachment factor B2 L60C, Q14151” gave an abundance fitness of -0.691 ± 0.14. “Scaffold attachment factor B2 L60D, Q14151” gave an abundance fitness of -0.019 ± 0.14. For “Scaffold attachment factor B2 L60F, Q14151”, the abundance fitness was -0.448 ± 0.16. In the case of “Scaffold attachment factor B2 L60G, Q14151”, the abundance fitness is reported as -0.25 ± 0.084. Work on “Scaffold attachment factor B2 L60K, Q14151” yielded an abundance fitness of -0.204 ± 0.14. “Scaffold attachment factor B2 L60M, Q14151” gave an abundance fitness of -0.343 ± 0.15. “Scaffold attachment factor B2 L60N, Q14151” gave an abundance fitness of -0.35 ± 0.22. “Scaffold attachment factor B2 L60P, Q14151” gave an abundance fitness of -0.102 ± 0.14. “Scaffold attachment factor B2 L60Q, Q14151” showed an abundance fitness of -0.271 ± 0.15. With “Scaffold attachment factor B2 L60S, Q14151” the abundance fitness was -0.398 ± 0.16. Substance “Scaffold attachment factor B2 L60V, Q14151” has an abundance fitness of -0.361 ± 0.09. In the case of “Scaffold attachment factor B2 M57A, Q14151”, the abundance fitness is reported as -0.454 ± 0.087. “Scaffold attachment factor B2 M57C, Q14151” showed an abundance fitness of -0.504 ± 0.12. “Scaffold attachment factor B2 M57D, Q14151” gave an abundance fitness of -0.788 ± 0.18. Work on “Scaffold attachment factor B2 M57E, Q14151” yielded an abundance fitness of -0.292 ± 0.11. In the case of “Scaffold attachment factor B2 M57G, Q14151”, the abundance fitness is reported as -0.631 ± 0.09. Work on “Scaffold attachment factor B2 M57H, Q14151” yielded an abundance fitness of -0.392 ± 0.14. “Scaffold attachment factor B2 M57I, Q14151” showed an abundance fitness of -0.319 ± 0.099. For “Scaffold attachment factor B2 M57K, Q14151”, the abundance fitness was -0.473 ± 0.13. In the case of “Scaffold attachment factor B2 M57L, Q14151”, the abundance fitness is reported as -0.088 ± 0.11. Substance “Scaffold attachment factor B2 M57N, Q14151” has an abundance fitness of -0.492 ± 0.14. Substance “Scaffold attachment factor B2 M57P, Q14151” has an abundance fitness of -0.66 ± 0.093. Substance “Scaffold attachment factor B2 M57Q, Q14151” has an abundance fitness of -0.364 ± 0.094. In the case of “Scaffold attachment factor B2 M57S, Q14151”, the abundance fitness is reported as -0.49 ± 0.088. Substance “Scaffold attachment factor B2 M57T, Q14151” has an abundance fitness of -0.363 ± 0.1. In the case of “Scaffold attachment factor B2 M57V, Q14151”, the abundance fitness is reported as -0.189 ± 0.08. For “Scaffold attachment factor B2 M57W, Q14151”, the abundance fitness was -0.791 ± 0.11. Substance “Scaffold attachment factor B2 N46A, Q14151” has an abundance fitness of -0.317 ± 0.076. “Scaffold attachment factor B2 N46C, Q14151” gave an abundance fitness of -0.656 ± 0.12. For “Scaffold attachment factor B2 N46D, Q14151”, the abundance fitness was -0.104 ± 0.12. In the case of “Scaffold attachment factor B2 N46E, Q14151”, the abundance fitness is reported as -0.131 ± 0.092. With “Scaffold attachment factor B2 N46G, Q14151” the abundance fitness was 0.006 ± 0.084. For “Scaffold attachment factor B2 N46H, Q14151”, the abundance fitness was -0.432 ± 0.16. “Scaffold attachment factor B2 N46K, Q14151” gave an abundance fitness of -0.214 ± 0.088. In the case of “Scaffold attachment factor B2 N46L, Q14151”, the abundance fitness is reported as -0.355 ± 0.087. “Scaffold attachment factor B2 N46M, Q14151” showed an abundance fitness of -0.394 ± 0.17. Work on “Scaffold attachment factor B2 N46P, Q14151” yielded an abundance fitness of -0.514 ± 0.087. In the case of “Scaffold attachment factor B2 N46Q, Q14151”, the abundance fitness is reported as 0.023 ± 0.14. Substance “Scaffold attachment factor B2 N46R, Q14151” has an abundance fitness of -0.358 ± 0.073. For “Scaffold attachment factor B2 N46S, Q14151”, the abundance fitness was -0.135 ± 0.088. In the case of “Scaffold attachment factor B2 N46T, Q14151”, the abundance fitness is reported as -0.444 ± 0.099. “Scaffold attachment factor B2 N46V, Q14151” showed an abundance fitness of -0.515 ± 0.081. With “Scaffold attachment factor B2 N46W, Q14151” the abundance fitness was -1.28 ± 0.2. For “Scaffold attachment factor B2 N46Y, Q14151”, the abundance fitness was -0.484 ± 0.11. Work on “Scaffold attachment factor B2 N52A, Q14151” yielded an abundance fitness of -0.132 ± 0.088. Work on “Scaffold attachment factor B2 N52D, Q14151” yielded an abundance fitness of 0.11 ± 0.13. For “Scaffold attachment factor B2 N52E, Q14151”, the abundance fitness was 0.123 ± 0.11. “Scaffold attachment factor B2 N52F, Q14151” showed an abundance fitness of -0.701 ± 0.18. Work on “Scaffold attachment factor B2 N52G, Q14151” yielded an abundance fitness of -0.037 ± 0.087. For “Scaffold attachment factor B2 N52H, Q14151”, the abundance fitness was -0.719 ± 0.14. In the case of “Scaffold attachment factor B2 N52I, Q14151”, the abundance fitness is reported as -0.237 ± 0.12. With “Scaffold attachment factor B2 N52K, Q14151” the abundance fitness was -0.123 ± 0.093. “Scaffold attachment factor B2 N52L, Q14151” showed an abundance fitness of -0.511 ± 0.081. “Scaffold attachment factor B2 N52M, Q14151” showed an abundance fitness of -0.442 ± 0.11. “Scaffold attachment factor B2 N52P, Q14151” showed an abundance fitness of -0.074 ± 0.088. “Scaffold attachment factor B2 N52Q, Q14151” gave an abundance fitness of -0.63 ± 0.31. With “Scaffold attachment factor B2 N52R, Q14151” the abundance fitness was -0.229 ± 0.081. For “Scaffold attachment factor B2 N52T, Q14151”, the abundance fitness was -0.037 ± 0.093. With “Scaffold attachment factor B2 N52V, Q14151” the abundance fitness was -0.116 ± 0.089. In the case of “Scaffold attachment factor B2 N52W, Q14151”, the abundance fitness is reported as -1.06 ± 0.13. “Scaffold attachment factor B2 N52Y, Q14151” gave an abundance fitness of -0.587 ± 0.28. “Scaffold attachment factor B2 Q69A, Q14151” showed an abundance fitness of -0.094 ± 0.13. With “Scaffold attachment factor B2 Q69C, Q14151” the abundance fitness was -0.307 ± 0.2. Work on “Scaffold attachment factor B2 Q69F, Q14151” yielded an abundance fitness of -0.656 ± 0.2. “Scaffold attachment factor B2 Q69G, Q14151” showed an abundance fitness of 0.174 ± 0.095. Work on “Scaffold attachment factor B2 Q69H, Q14151” yielded an abundance fitness of -0.143 ± 0.2. “Scaffold attachment factor B2 Q69I, Q14151” gave an abundance fitness of -0.262 ± 0.11. “Scaffold attachment factor B2 Q69K, Q14151” showed an abundance fitness of -0.164 ± 0.1. With “Scaffold attachment factor B2 Q69L, Q14151” the abundance fitness was -0.133 ± 0.11. In the case of “Scaffold attachment factor B2 Q69M, Q14151”, the abundance fitness is reported as -0.27 ± 0.19. For “Scaffold attachment factor B2 Q69N, Q14151”, the abundance fitness was -0.717 ± 0.32. “Scaffold attachment factor B2 Q69P, Q14151” showed an abundance fitness of -0.227 ± 0.15. Substance “Scaffold attachment factor B2 Q69R, Q14151” has an abundance fitness of -0.104 ± 0.074. Work on “Scaffold attachment factor B2 Q69S, Q14151” yielded an abundance fitness of -0.077 ± 0.11. Work on “Scaffold attachment factor B2 Q69T, Q14151” yielded an abundance fitness of -0.261 ± 0.12. With “Scaffold attachment factor B2 Q69V, Q14151” the abundance fitness was -0.175 ± 0.11. Substance “Scaffold attachment factor B2 Q69W, Q14151” has an abundance fitness of -0.285 ± 0.13. With “Scaffold attachment factor B2 R28A, Q14151” the abundance fitness was -0.139 ± 0.094. In the case of “Scaffold attachment factor B2 R28C, Q14151”, the abundance fitness is reported as -0.271 ± 0.15. For “Scaffold attachment factor B2 R28D, Q14151”, the abundance fitness was 0.131 ± 0.081. “Scaffold attachment factor B2 R28E, Q14151” gave an abundance fitness of 0.088 ± 0.1. “Scaffold attachment factor B2 R28G, Q14151” showed an abundance fitness of 0.05 ± 0.071. “Scaffold attachment factor B2 R28H, Q14151” gave an abundance fitness of 0.063 ± 0.2. For “Scaffold attachment factor B2 R28I, Q14151”, the abundance fitness was -0.342 ± 0.18. “Scaffold attachment factor B2 R28K, Q14151” showed an abundance fitness of -0.033 ± 0.14. “Scaffold attachment factor B2 R28L, Q14151” gave an abundance fitness of -0.176 ± 0.11. Substance “Scaffold attachment factor B2 R28N, Q14151” has an abundance fitness of -0.005 ± 0.15. With “Scaffold attachment factor B2 R28P, Q14151” the abundance fitness was -0.437 ± 0.22. For “Scaffold attachment factor B2 R28T, Q14151”, the abundance fitness was -0.045 ± 0.12. In the case of “Scaffold attachment factor B2 R28W, Q14151”, the abundance fitness is reported as -0.14 ± 0.086. In the case of “Scaffold attachment factor B2 R28Y, Q14151”, the abundance fitness is reported as -0.377 ± 0.18. Work on “Scaffold attachment factor B2 R29C, Q14151” yielded an abundance fitness of -0.474 ± 0.31. “Scaffold attachment factor B2 R29D, Q14151” showed an abundance fitness of 0.089 ± 0.093. In the case of “Scaffold attachment factor B2 R29E, Q14151”, the abundance fitness is reported as 0.113 ± 0.095. “Scaffold attachment factor B2 R29F, Q14151” gave an abundance fitness of -0.237 ± 0.15. In the case of “Scaffold attachment factor B2 R29G, Q14151”, the abundance fitness is reported as -0.127 ± 0.074.

From the Human Domainome abundance scans (Beltran et al. 2025)
